The source of these data is US20230119066A1 (Bristol-Myers Squibb, published 2023).

The target of assay [1] is T1, human C-C Motif Chemokine Receptor 8 (hCCR8) (human, UniProt P51685 1-355). The experiment in a line: cell-based or functional assay.
Assay [2] deals with T1, human C-C Motif Chemokine Receptor 8 …. The experiment in a line: flow cytometry, binding to activated human Tregs, median EC50. The procedure: Activated Tregs prepared from previously isolated and expanded Tregs were stimulated for 2 days with anti-CD3/CD28 activation beads (ThermoFisher) in the presence of 100 units/ml of recombinant human IL-2. The Abs were serially diluted from a starting concentration of 30 μg/ml. An appropriate PE-conjugated secondary Ab (Jackson ImmunoResearch) against the primary anti-CCR8 Ab was applied, incubated for 15 min at 4° C., and then washed off. EC₅₀ values for the binding of selected anti-CCR8 mAbs to activated Tregs, was calculated using GraphPad Prism (GraphPad Software, La Jolla, Calif.).
A select subset of Abs having EC₅₀ values ranging from picomolar to nanomolar is presented in FIG. 11B, and the respective EC₅₀ values are provided in Table 4.

For assay [3] the target is unchanged. In words: cell-based or functional assay. The source holds these as a separate data set.
The target is the same in assay [4]. In words: cell-based or functional assay. This is another data set of the same source.
In assay [5] the target is T2, CCR8 N-terminal peptide (SPR of Example 10) (human, sulfation not stated in Example 10; the panning peptide was biotinylated).
T2 construct: also called biotinylated CCR8 N-terminal peptide from Anaspec
In words: SPR; starting mouse Ab 9G10, before humanization. For orientation: Surface plasmon resonance follows binding to a sensor surface in real time, without labels.

Assay [6] deals with T2, CCR8 N-terminal peptide (SPR of Example …). In words: SPR; 14S15h Fab fragment, humanized, affinity-matured.

B1: mAb 14S15, nonfucosylated chimeric mouse-human anti-hCCR8 (antibody, human IgG1, kappa, V domains shown)
VH: EVQLVEFGGGLVQPKGSLKLSCVVSGFRFNPYAMNWVRQAPGKGLEWLGRIRSKSNNYETYYADSVKDRFIISRDDSQKMVYLQMNNVKTEDTAMYYCVGYSDLYVLDYWGQGTSVTVSS
VL: DIVMTQAAPSVPVTPGESVSISCRSSKSLLHSNGNTFLYWFLQRPGQSPQLLIYRMSNLASGVPHRFSGSGSGTAFTLRISRVEAEDVGVYYCMQHLEYPFTFGSGTKLEIKR
notes: Chimeric version with nf human IgG1 Fc; also called 14S15-IgG1-nf; CCR8.2
A word on the EC50: it is the midpoint of the concentration-response curve. Regarding B1, the “IC50 (nM), blockade of calcium flux on CCR8-expressing cells” value in assay [1] was determined as 1.33 nM. In assay [2], this molecule showed a half-maximal effective concentration (EC50) of 0.252 nM. Besides, in assay [3], the “EC50 (pM), cross-linking of CD16 expression reporter cells” value turned out to be 8.02 pM. Moreover, in assay [4], the “Median EC50 (pM), ADCC killing of activated Tregs by allogeneic NK cells” value (shortened to “Median EC50 (pM) … by allogeneic NK cells”) stood at 39.7 pM.

B2: 9G10, starting mouse anti-CCR8 mAb of 14S15 and 14S15h (antibody, V domains shown)
VH: B1 VH
VL: DIVMTQAAPSVPVTPGESVSISCRSSKSLLHSNGNTFLYWFLQRPGQSPQLLIYRMSNLASGVPHRFSGSGSGTAFTLRISRVEAEDVGVYYCMQHLEYPFTFGSGTKLEIK
notes: also called starting mouse Ab; starting mouse mAb
The Kd is a measure of binding affinity in units of concentration. Read a low Kd as tighter binding. Take B2: the affinity in assay [5], expressed as Kd, was 1.4 nM.

B3: 14S15h Fab fragment (Fab, V domains shown)
VH: EVQLVESGGGLVKPGGSLRLSCAASGFRFGPYAMNWVRQAPGKGLEWVGRIRSKSNNYETYYADSVKDRFTISRDDSKNTLYLQMNSLKTEDTAVYYCVGYSDLYVLDYWGQGTLVTVSS
VL: DIVMTQTPPSLPVNPGEPASISCRSSKSLLHSQGNTFLYWYLQKPGQSPQLLIYRMSNLASGVPDRFSGSGSGSDFTLKISWVEAEDVGVYYCMQHLEYPFTFGPGTKVDIK
notes: Tested as a Fab fragment whose constant parts are not delimited
B3: in assay [6], the dissociation constant Kd was 0.64 nM.

B4: mAb 12F27 (antibody, V domains shown)
VH: QVQLVESGGGVVQPGRSLRLSCAASGFSFRSYGIHWVRQAPGKGLEWVAVISYEGSNKRYADSVKGRFTISRDNSKSTLSLQMNSLRAEDTAVYYCAKGRRPSGEGAFDIWGQGTMVTVSS
VL: DIQMTQSPSSLSASVGDRVTITCRASQGISSWLAWYQQKPEKAPKSLIYAASSLQSGVPSRFSGSGSGTDFTLTISSLQPEDFATYYCQQYNSFPPTFGQGTKVEIKR
Take B4: the “Median EC50 (pM) … by allogeneic NK cells” value in assay [4] amounted to 304000 pM.

B5: mAb 4A19, nonfucosylated humanized IgG1 anti-hCCR8 (antibody, V domains shown)
VH: QVQLVQSGAEVKKPGASVKVSCKASGYTFTDSEMHWVRQATGQGLEWMGAIQPETGGTAYNQKFKARVTMTRDTSISTAYMELSSLRSEDTAVYYCARRRRNFDYWGQGTLVTVSS
VL: DIVMTQTPLSLSVTPGQPASISCRSSQSLFHSSGNTYLHWYLQKPGQPPQLLIYKVSNRFSGVPDRFSGSGSGTDFTLKISRVEAEDVGVYYCSQSTHVPFTFGQGTKLEIKR
notes: hIgG1-nf, expressed in Expi293 Fut8-/- cells; also called CCR8-nf; A419
Turning to B5, in assay [1], the “IC50 (nM), blockade of calcium flux on CCR8-expressing cells” value was found to be 0.465 nM. The molecule further returned an EC50 in assay [2] of 1.65 nM. In assay [3], the “EC50 (pM), cross-linking of CD16 expression reporter cells” value came to 0.69 pM. In addition, the “Median EC50 (pM) … by allogeneic NK cells” value in assay [4] was 13.1 pM.
